Where two headings read alike, the source gives them in different places.
B1: A. fumigatus CBC consisting of the subunits HapB^230-299, HapC^40-137 and HapE^47-164 (complex)
chain 1: not shown
chain 2: KEQDRWLPIANVARIMKLALPENAKIAKEAKECMQECVSEFISFITSEASEKCQQEKRKTVNGEDILFAMTSLGFENYAEALKIYLSKYRETQSARGE
chain 3: GTWANVNQGLQGTARDILTTYWQHIINHLESDNHDYKIHQLPLARIKKVMKADPEVKMISAEAPILFAKGCDIFITELTMRAWIHAEDNKRRTLQRSDIAAALSKSDMFDFLIDIVPR
B2: A. fumigatus HapX^24-158 wild type (domain or fragment)
chain: SPSPGPGTPGSITSKEWVIPPRPKPGRKPATDTPPTKRKAQNRAAQRAFRERRAARVNELEEQIKKIEDEHEIHIAAFKEQITNLSREVEQCRSEMTWWRDRCHALEKEVSVERSAKEAIVKEFRSSLSDREAVR

Tests used:
[1] = molecular target: T1, A. fumigatus HapX^24-158 ΔT36-I42 (Aspergillus fumigatus, UniProt Q4WER3 24-158, ΔT36-I42); assay: SPR; CBC preformed on AfucccA 37 bp DNA
[2] = molecular target: A. fumigatus HapX^24-158 W40A (Aspergillus fumigatus, UniProt Q4WER3 24-158, W40A); assay: SPR; CBC preformed on AfucccA 37 bp DNA
[3] = molecular target: A. fumigatus HapX^24-158 R45A (Aspergillus fumigatus, UniProt Q4WER3 24-158, R45A); assay: SPR; CBC preformed on AfucccA 37 bp DNA
[4] = molecular target: A. fumigatus HapX^24-158 R50A (Aspergillus fumigatus, UniProt Q4WER3 24-158, R50A); assay: SPR; CBC preformed on AfucccA 37 bp DNA
[5] = molecular target: T1, A. fumigatus HapX^24-158 ΔT36-I42; assay: SPR; CBC preformed on Afucyp51A 37 bp DNA
[6] = molecular target: A. fumigatus HapX^24-158 K38E (Aspergillus fumigatus, UniProt Q4WER3 24-158, K38E); assay: SPR; CBC preformed on AfucccA 37 bp DNA
[7] = molecular target: B1; assay: SPR
[8] = molecular target: B1; assay: SPR; remark: listed apart in the source
[9] = molecular target: B1; assay: SPR; remark: listed apart in the source
[10] = molecular target: B1; assay: SPR; remark: listed apart in the source

Binder | Kd [1] [nM] | Kd [2] [nM] | Kd [3] [nM] | Kd [4] [nM] | Kd [5] [nM] | Kd [6] [nM] | Kd [7] [nM] | Kd [8] [nM] | Kd [9] [nM] | Kd [10] [nM]
B1 | 136 | 13.2 | 2.86 | 3.93 | 511 | 3.76 |  |  |  | 
B2 |  |  |  |  |  |  | 28.3 | 22.7 | 0.9 | 0.34

Source: article doi:10.1101/2021.07.15.452465 (2021)
